Source: patent US20110167521

How the values were obtained:
Test in all cases: cell_activity
[1] = test system: ZFP 13722-KRAB1 (artificial); conditions: homozygous T2 immature seed, event 5212-4; no apparent effect in heterozygous
[2] = test system: ZFP 13722-NtERF3 (artificial); conditions: homozygous T2 immature seed, event 5227-12, p=0.025; no apparent effect in heterozygous
[3] = test system: ZFP 14025-VP16 (artificial); conditions: callus, control 2.90; 27% up-regulation p=0.05; more than 3-fold in some T0 events

Sequence: AAGGAGAATTTTAGGGTTTGGGGAGACT (double strand) [FatB5 13722 target]
- activity (% FatB5 mRNA reduction) [1]: 15
- activity (% FatB5 mRNA reduction) [2]: 21

Sequence: CGTGGAGACGTCAAAAGA (double strand) [KASII 14025 target]
- activity (KasII/tubulin mRNA ratio) [3]: 3.69
